Results from the Human Domainome abundance scans (Beltran et al. 2025).
± gives the uncertainty stated by the source.

B1: Ankyrin-3, residues 4094 to 4171; numbered along this chain, Q12955 (parent)
chain: MAIVADHLGLSWTELARELNFSVDEINQIRVENPNSLISQSFMLLKKWVTRDGKNATTDALTSVLTKINRIDIVTLLE

Variants of: B1
Assay: abundance fitness (aPCA) (normalised: wild type 0, dead -1); higher = more abundant; growth selection in yeast, the domain comes from the species named
Settings: Homo sapiens

Abundance fitness: each site, then its substitutions
N35: V -0.48 ± 0.079 | H -0.266 ± 0.13 | S -0.174 ± 0.058 | L -0.626 ± 0.065 | Q -0.077 ± 0.066 | T -0.018 ± 0.076 | W -0.487 ± 0.14 | K -0.329 ± 0.12 | R -0.128 ± 0.047 | Y -0.307 ± 0.14 | G -0.065 ± 0.049 | C -0.212 ± 0.11 | A -0.215 ± 0.068 | P -0.665 ± 0.12 | F -0.499 ± 0.24 | E -0.082 ± 0.091 | D -0.053 ± 0.091 | I -0.337 ± 0.29
S41: M -0.815 ± 0.32 | C -0.538 ± 0.12 | P -0.972 ± 0.17 | Y -0.67 ± 0.45 | T -0.211 ± 0.097 | A 0.032 ± 0.061 | E -0.912 ± 0.2 | R -0.725 ± 0.074 | G -0.047 ± 0.048 | I -0.74 ± 0.28 | N -0.748 ± 0.37 | F -0.815 ± 0.36 | V -0.851 ± 0.17
I38: V 0.027 ± 0.068 | E 0.15 ± 0.075 | A -0.02 ± 0.073 | T -0.122 ± 0.071 | R 0.089 ± 0.044 | D -0.286 ± 0.18 | P -0.041 ± 0.066 | H -0.167 ± 0.21 | Q -0.133 ± 0.11 | K 0.05 ± 0.13 | L -0.183 ± 0.058 | S 0.078 ± 0.057 | G -0.006 ± 0.061 | M 0.009 ± 0.088 | W -0.039 ± 0.071 | C -0.038 ± 0.066 | N 0.234 ± 0.25
N33: Q 0.093 ± 0.067 | S -0.014 ± 0.055 | K -0.208 ± 0.076 | W -0.204 ± 0.066 | R -0.148 ± 0.045 | E 0.055 ± 0.075 | F -0.082 ± 0.14 | P -0.812 ± 0.18 | G -0.607 ± 0.061 | L -0.755 ± 0.11 | T -0.091 ± 0.069 | H -0.023 ± 0.16 | C 0.034 ± 0.1 | M -0.143 ± 0.088 | Y -0.168 ± 0.12
Q40: F -0.74 ± 0.41 | I -0.663 ± 0.37 | S -0.312 ± 0.06 | R -0.407 ± 0.055 | H -0.622 ± 0.18 | D -0.726 ± 0.23 | C -0.127 ± 0.14 | N -1.03 ± 0.38 | L -0.833 ± 0.13 | W -0.736 ± 0.13 | T -0.725 ± 0.13 | G -0.74 ± 0.086 | A -0.064 ± 0.056 | P -0.646 ± 0.096 | K -0.35 ± 0.25 | V -0.894 ± 0.15 | Y -0.672 ± 0.28
F42: D 0.165 ± 0.086 | N 0.104 ± 0.22 | G 0.113 ± 0.048 | K 0.201 ± 0.093 | L -0.063 ± 0.065 | M 0.102 ± 0.12 | A 0.043 ± 0.048 | H 0.119 ± 0.1 | I -0.03 ± 0.14
E32: Q -0.1 ± 0.14 | W -0.839 ± 0.19 | Y -0.278 ± 0.2 | R -0.126 ± 0.051 | N -0.074 ± 0.15 | P -0.593 ± 0.11 | T -0.155 ± 0.086 | S -0.185 ± 0.052 | V -0.316 ± 0.045
L37: P -0.089 ± 0.056 | Y -0.141 ± 0.16 | N -0.359 ± 0.16 | M -0.014 ± 0.07 | T -0.03 ± 0.076 | S -0.132 ± 0.064 | K -0.169 ± 0.15 | D -0.254 ± 0.11 | R -0.526 ± 0.084 | V 0.048 ± 0.067 | E 0.026 ± 0.099 | Q -0.032 ± 0.052 | G -0.413 ± 0.068 | C -0.15 ± 0.096 | A -0.095 ± 0.065 | H -0.107 ± 0.072 | F -0.231 ± 0.094 | W -0.395 ± 0.12
P34: F -0.479 ± 0.18 | K -0.561 ± 0.18 | T -0.366 ± 0.078 | S -0.145 ± 0.05 | G -0.299 ± 0.066 | R -0.26 ± 0.058 | D -0.268 ± 0.1 | N -0.331 ± 0.2 | W -0.9 ± 0.18 | V -1.11 ± 0.21 | A -0.245 ± 0.056 | M -0.658 ± 0.14 | E -0.24 ± 0.099 | C -0.7 ± 0.21 | L -0.874 ± 0.11 | H -0.268 ± 0.15 | Q -0.067 ± 0.078
S36: C -0.184 ± 0.11 | T -0.297 ± 0.087 | P -0.878 ± 0.12 | R -0.449 ± 0.081 | D 0.155 ± 0.11 | L -0.933 ± 0.14 | F -0.717 ± 0.27 | N -0.044 ± 0.14 | M -0.778 ± 0.2 | A -0.609 ± 0.085 | K -0.626 ± 0.14 | V -0.952 ± 0.16 | H -0.295 ± 0.15 | Q -0.336 ± 0.11 | G -0.28 ± 0.053 | E -0.172 ± 0.085
S39: H -0.084 ± 0.17 | M -0.071 ± 0.094 | T -0.016 ± 0.042 | W -0.47 ± 0.094 | V -0.209 ± 0.057 | C -0.011 ± 0.14 | A 0.05 ± 0.055 | P -0.685 ± 0.13 | G -0.048 ± 0.045 | D -0.013 ± 0.2 | N 0.142 ± 0.28 | E -0.103 ± 0.094 | F -0.434 ± 0.24 | R 0.001 ± 0.034 | Q 0.087 ± 0.086 | K 0 ± 0.16 | Y -0.616 ± 0.24 | L -0.184 ± 0.072
